B2: protein 4.2 (natural protein, human (endogenous in erythrocytes), UniProt P16452 1-691, looked up)
chain: MGQALGIKSCDFQAARNNEEHHTKALSSRRLFVRRGQPFTIILYFRAPVRAFLPALKKVALTAQTGEQPSKINRTQATFPISSLGDRKWWSAVVEERDAQSWTISVTTPADAVIGHYSLLLQVSGRKQLLLGQFTLLFNPWNREDAVFLKNEAQRMEYLLNQNGLIYLGTADCIQAESWDFGQFEGDVIDLSLRLLSKDKQVEKWSQPVHVARVLGALLHFLKEQRVLPTPQTQATQEGALLNKRRGSVPILRQWLTGRGRPVYDGQAWVLAAVACTVLRCLGIPARVVTTFASAQGTGGRLLIDEYYNEEGLQNGEGQRGRIWIFQTSTECWMTRPALPQGYDGWQILHPSAPNGGGVLGSCDLVPVRAVKEGTLGLTPAVSDLFAAINASCVVWKCCEDGTLELTDSNTKYVGNNISTKGVGSDRCEDITQNYKYPEGSLQEKEVLERVEKEKMEREKDNGIRPPSLETASPLYLLLKAPSSLPLRGDAQISVTLVNHSEQEKAVQLAIGVQAVHYNGVLAAKLWRKKLHLTLSANLEKIITIGLFFSNFERNPPENTFLRLTAMATHSESNLSCFAQEDIAICRPHLAIKMPEKAEQYQPLTASVSLQNSLDAPMEDCVISILGRGLIHRERSYRFRSVWPENTMCAKFQFTPTHVGLQRLTVEVDCNMFQNLTNYKSVTVVAPELSA
modifications: N-terminal glycine myristoylated

Holding throughout (experiment): cryo-EM structure
The data set “cryo-EM structure” concerns the molecule itself.
The target in another data set is T1, RhCE (human (endogenous in erythrocytes), UniProt P18577 1-417).
T1 sequence (looked up): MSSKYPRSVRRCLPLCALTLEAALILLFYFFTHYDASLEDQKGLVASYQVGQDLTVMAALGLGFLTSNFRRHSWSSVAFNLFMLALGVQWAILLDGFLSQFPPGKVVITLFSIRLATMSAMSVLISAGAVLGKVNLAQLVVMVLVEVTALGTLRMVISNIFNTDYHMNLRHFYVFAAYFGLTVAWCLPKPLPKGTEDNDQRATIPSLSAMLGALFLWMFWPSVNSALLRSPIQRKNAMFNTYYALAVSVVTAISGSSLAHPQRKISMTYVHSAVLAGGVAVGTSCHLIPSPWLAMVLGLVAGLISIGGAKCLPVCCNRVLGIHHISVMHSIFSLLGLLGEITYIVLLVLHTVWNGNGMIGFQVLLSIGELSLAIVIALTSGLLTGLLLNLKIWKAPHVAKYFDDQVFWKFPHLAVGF

The target in data set [1] is T2, band 3 anion exchanger (human (endogenous in erythrocytes), UniProt P02730 1-911).
T2 sequence (looked up): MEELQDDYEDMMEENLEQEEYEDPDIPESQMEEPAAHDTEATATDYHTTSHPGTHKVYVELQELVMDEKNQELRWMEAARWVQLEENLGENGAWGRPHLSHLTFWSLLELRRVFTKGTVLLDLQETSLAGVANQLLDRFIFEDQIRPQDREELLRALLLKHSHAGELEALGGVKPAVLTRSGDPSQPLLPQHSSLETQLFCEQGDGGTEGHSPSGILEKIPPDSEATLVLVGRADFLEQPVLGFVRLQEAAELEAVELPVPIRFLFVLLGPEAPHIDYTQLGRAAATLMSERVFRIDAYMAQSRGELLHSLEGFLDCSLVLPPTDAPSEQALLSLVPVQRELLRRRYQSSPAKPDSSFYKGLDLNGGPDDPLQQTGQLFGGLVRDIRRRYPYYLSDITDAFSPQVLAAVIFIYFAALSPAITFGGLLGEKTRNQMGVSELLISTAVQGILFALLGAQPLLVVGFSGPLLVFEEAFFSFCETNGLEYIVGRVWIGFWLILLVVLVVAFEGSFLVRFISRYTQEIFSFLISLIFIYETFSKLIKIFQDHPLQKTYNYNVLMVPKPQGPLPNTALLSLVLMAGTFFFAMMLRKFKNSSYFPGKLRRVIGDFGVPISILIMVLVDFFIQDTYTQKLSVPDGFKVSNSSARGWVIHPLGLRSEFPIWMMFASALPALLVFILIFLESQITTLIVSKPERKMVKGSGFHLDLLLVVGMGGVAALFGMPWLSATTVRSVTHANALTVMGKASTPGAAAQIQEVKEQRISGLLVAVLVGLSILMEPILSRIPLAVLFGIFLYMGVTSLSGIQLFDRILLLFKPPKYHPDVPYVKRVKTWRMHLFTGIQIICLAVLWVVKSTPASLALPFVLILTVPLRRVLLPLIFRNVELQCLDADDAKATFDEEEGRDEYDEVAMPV

The data set “protein 4.2” deals with B2.
Data set [2] deals with T2, band 3 anion exchanger. This is another data set of the same source.

B1: RhAG (natural protein, human (endogenous in erythrocytes), UniProt Q02094 1-409, looked up)
chain: MRFTFPLMAIVLEIAMIVLFGLFVEYETDQTVLEQLNITKPTDMGIFFELYPLFQDVHVMIFVGFGFLMTFLKKYGFSSVGINLLVAALGLQWGTIVQGILQSQGQKFNIGIKNMINADFSAATVLISFGAVLGKTSPTQMLIMTILEIVFFAHNEYLVSEIFKASDIGASMTIHAFGAYFGLAVAGILYRSGLRKGHENEESAYYSDLFAMIGTLFLWMFWPSFNSAIAEPGDKQCRAIVNTYFSLAACVLTAFAFSSLVEHRGKLNMVHIQNATLAGGVAVGTCADMAIHPFGSMIIGSIAGMVSVLGYKFLTPLFTTKLRIHDTCGVHNLHGLPGVVGGLAGIVAVAMGASNTSMAMQAAALGSSIGTAVVGGLMTGLILKLPLWGQPSDQNCYDDSVYWKVPKTR
Turning to B1, the binding result in “cryo-EM structure” is given as “binds”. For the same molecule, in the data set with RhCE, the stoichiometry N (in general, the number of molecules, sites or subunits per partner or assembly) turned out to be 2 RhAG per RhCE.
Turning to B2, in the data set with band 3 anion exchanger [1], the binding result is “binds”.

B3: aquaporin-1 (natural protein, human (endogenous in erythrocytes), UniProt P29972 1-269, looked up)
chain: MASEFKKKLFWRAVVAEFLATTLFVFISIGSALGFKYPVGNNQTAVQDNVKVSLAFGLSIATLAQSVGHISGAHLNPAVTLGLLLSCQISIFRALMYIIAQCVGAIVATAILSGITSSLTGNSLGRNDLADGVNSGQGLGIEIIGTLQLVLCVLATTDRRRRDLGGSAPLAIGLSVALGHLLAIDYTGCGINPARSFGSAVITHNFSNHWIFWVGPFIGGALAVLIYDFILAPRSSDLTDRVKVWTSGQVEEYDLDADDINSRVEMKPK
modifications: lipid-like density attached to Cys-87, assigned as a palmitoylation site
Regarding B3, in the data set with protein 4.2, the binding result is listed as “binds”.

B4: glycophorin A (natural protein, human (endogenous in erythrocytes), UniProt P02724 20-150, looked up)
chain: LSTTEVAMHTSTSSSVTKSYISSQTNDTHKRDTYAATPRAHEVSEISVRTVYPPEEETGERVQLAHHFSEPEITLIIFGVMAGVIGTILLISYGIRRLIKKSPSDVKPLPSPDTDVPLSSVEIENPETSDQ
Regarding B4, in the data set with band 3 anion exchanger [2], the “stoichiometry N” value was determined as 1 GPA per band 3 protomer.

The values are drawn from publication PMC10373098 (Nature structural & molecular biology, 2022).
